Results reported in article PMC7494424 (Nature methods, 2019).

Target: the molecule itself
Assay: cryo-EM structure

B1: P. falciparum M18 aspartyl aminopeptidase (enzyme, UniProt Q8I2J3 1-570, looked up)
chain: MDKKAREYAQDALKFIQRSGSNFLACKNLKERLENNGFINLSEGETWNLNKNEGYVLCKENRNICGFFVGKNFNIDTGSILISIGHIDSCALKISPNNNVIKKKIHQINVECYGSGLWHTWFDRSLGLSGQVLYKKGNKLVEKLIQINKSVLFLPSLAIHLQNRTRYDFSVKINYENHIKPIISTTLFNQLNKCKRNNVHHDTILTTDTKFSHKENSQNKRDDQMCHSFNDKDVSNHNLDKNTIEHLTNQQNEEKNKHTKDNPNSKDIVEHINTDNSYPLLYLLSKELNCKEEDILDFELCLMDTQEPCFTGVYEEFIEGARFDNLLGSFCVFEGFIELVNSIKNHTSNENTNHTNNITNDINDNIHNNLYISIGYDHEEIGSLSEVGARSYCTKNFIDRIISSVFKKEIHEKNLSVQEIYGNLVNRSFILNVDMAHCSHPNYPETVQDNHQLFFHEGIAIKYNTNKNYVTSPLHASLIKRTFELYYNKYKQQIKYQNFMVKNDTPCGSTVGSMVAANLSMPGIDIGIPQLAMHSIREIAAVHDVFFLIKGVFAFYTYYNQVLSTCVHDK
stoichiometry N: 12

B2: P. falciparum glutamine synthetase (enzyme, UniProt C0H551 1-543, looked up)
chain: MKSVSFSNNAELYEYIKDKKNDVEIVACIITNLLGTYFKCFFYVKEITLNKLESGFSFDASSIKLCSDTEVSDFFIKVDHSTCYLEECDGKNILNIMCDIKRYNGFDYYKCPRTILKKTCEFVKNEGIADKVCIGNELEFFIFDKVNYSLDEYNTYLKVYDRESFSCKNDLSSIYGNHVVNKVEPHKDHFNNPNNEYLINDDSKKVKKKSGYFTTDPYDTSNIIKLRICRALNDMNINVQRYHHEVSTSQHEISLKYFDALTNADFLLITKQIIKTTVSSFNRTATFMPKPLVNDNGNGLHCNISLWKNNKNIFYHNDPSTFFLSKESFYFMYGIVKHAKALQAFCNATMNSYKRLVPGFETCQKLFYSFGSRSAVIRLSLINYSNPSEKRIEFRLPDCANSPHLVMAAIILAGYDGIKSKEQPLVPFESKDNHFYISSIFSKYVQHPENFNILTHALEGYESLHTINESPEFKNFFKCEEPQGISFSLVESLDALEKDHAFLTVNNIFTEEMIQEYIKFKREEIDAYNKYVNAYDYHLYYEC
stoichiometry N: 12
